Experimental data from patent CN112125972A (SINOCELLTECH LTD, dated 2020).

Key:
HPV6 VLP = biological target: T1, HPV6 VLP (Human papillomavirus type 6, UniProt P69899 1-500); assay: indirect ELISA, VLP coated at 2 μg/mL
T1 construct: also called HPV6完整VLP蛋白
T1 sequence: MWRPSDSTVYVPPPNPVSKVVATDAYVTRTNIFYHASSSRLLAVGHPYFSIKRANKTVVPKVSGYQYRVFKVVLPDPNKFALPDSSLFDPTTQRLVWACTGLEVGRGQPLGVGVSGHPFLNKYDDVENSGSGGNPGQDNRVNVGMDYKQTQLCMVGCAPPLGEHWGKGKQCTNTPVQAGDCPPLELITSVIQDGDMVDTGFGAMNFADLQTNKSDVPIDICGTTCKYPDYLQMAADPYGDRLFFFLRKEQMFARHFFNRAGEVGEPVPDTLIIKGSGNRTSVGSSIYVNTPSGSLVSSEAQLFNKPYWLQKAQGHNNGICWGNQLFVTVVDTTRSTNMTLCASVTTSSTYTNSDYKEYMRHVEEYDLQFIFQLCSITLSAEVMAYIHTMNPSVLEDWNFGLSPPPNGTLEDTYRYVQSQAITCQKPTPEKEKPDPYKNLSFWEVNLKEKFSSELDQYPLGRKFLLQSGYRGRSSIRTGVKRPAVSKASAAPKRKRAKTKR

HPV56 VLP [1] = biological target: T2, HPV56 VLP (Human papillomavirus type 56, UniProt P36743 36-534); assay: indirect ELISA, VLP coated at 2 μg/mL
T2 construct: also called HPV56完整VLP蛋白
T2 sequence: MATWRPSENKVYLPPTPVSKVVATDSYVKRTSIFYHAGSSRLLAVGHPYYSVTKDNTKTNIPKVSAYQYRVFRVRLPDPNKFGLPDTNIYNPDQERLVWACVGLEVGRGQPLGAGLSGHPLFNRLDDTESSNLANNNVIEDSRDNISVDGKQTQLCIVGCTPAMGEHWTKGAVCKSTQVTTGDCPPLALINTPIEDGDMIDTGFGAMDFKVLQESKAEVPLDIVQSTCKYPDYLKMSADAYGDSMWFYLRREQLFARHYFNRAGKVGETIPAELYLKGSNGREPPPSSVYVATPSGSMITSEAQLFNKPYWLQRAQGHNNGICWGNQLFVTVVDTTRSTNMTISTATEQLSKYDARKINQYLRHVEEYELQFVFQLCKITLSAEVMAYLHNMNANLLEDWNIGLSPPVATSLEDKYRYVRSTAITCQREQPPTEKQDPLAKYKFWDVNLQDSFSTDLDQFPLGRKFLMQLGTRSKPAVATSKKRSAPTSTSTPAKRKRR

HPV52 VLP = biological target: T3, HPV52 VLP (Human papillomavirus type 52, UniProt Q05138 27-529); assay: indirect ELISA, VLP coated at 2 μg/mL
T3 construct: also called HPV52完整VLP蛋白
T3 sequence: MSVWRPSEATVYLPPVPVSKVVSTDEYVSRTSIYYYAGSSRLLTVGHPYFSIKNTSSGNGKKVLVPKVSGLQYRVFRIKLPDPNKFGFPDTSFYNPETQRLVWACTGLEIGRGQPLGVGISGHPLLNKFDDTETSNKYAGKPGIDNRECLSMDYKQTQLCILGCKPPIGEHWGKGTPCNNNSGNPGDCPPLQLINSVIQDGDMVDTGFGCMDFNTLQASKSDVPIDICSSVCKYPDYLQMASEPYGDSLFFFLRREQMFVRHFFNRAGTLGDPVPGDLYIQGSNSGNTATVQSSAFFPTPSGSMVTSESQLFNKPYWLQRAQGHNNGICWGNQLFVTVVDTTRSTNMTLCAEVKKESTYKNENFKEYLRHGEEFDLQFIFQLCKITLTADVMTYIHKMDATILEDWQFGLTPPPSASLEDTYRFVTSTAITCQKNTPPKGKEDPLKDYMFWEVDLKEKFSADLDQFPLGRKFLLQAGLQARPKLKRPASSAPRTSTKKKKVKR

HPV58 VLP = biological target: T4, HPV58 VLP (Human papillomavirus type 58, UniProt P26535 27-524); assay: indirect ELISA, VLP coated at 2 μg/mL
T4 construct: also called HPV58完整VLP蛋白
T4 sequence: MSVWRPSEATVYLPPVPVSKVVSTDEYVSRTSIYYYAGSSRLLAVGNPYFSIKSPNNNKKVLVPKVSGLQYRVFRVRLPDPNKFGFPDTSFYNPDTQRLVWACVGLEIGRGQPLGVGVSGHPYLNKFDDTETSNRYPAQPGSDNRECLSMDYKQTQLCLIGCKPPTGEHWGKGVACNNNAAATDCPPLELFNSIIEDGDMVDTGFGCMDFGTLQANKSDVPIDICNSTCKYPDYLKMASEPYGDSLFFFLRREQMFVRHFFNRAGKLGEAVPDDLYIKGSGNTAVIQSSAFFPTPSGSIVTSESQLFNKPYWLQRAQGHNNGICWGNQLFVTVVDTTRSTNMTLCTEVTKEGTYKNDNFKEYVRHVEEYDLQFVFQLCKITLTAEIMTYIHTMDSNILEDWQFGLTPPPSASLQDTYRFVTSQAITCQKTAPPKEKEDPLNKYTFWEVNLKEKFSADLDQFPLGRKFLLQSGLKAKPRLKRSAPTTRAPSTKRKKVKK

HPV56 VLP [2] = biological target: T2, HPV56 VLP; assay: indirect ELISA, VLP coated at 2 μg/mL, antibody at 10 ng/mL
HPV51 VLP = biological target: T5, HPV51 VLP (Human papillomavirus type 51, UniProt P26536 1-504); assay: as above
T5 construct: also called HPV51完整VLP蛋白
T5 sequence: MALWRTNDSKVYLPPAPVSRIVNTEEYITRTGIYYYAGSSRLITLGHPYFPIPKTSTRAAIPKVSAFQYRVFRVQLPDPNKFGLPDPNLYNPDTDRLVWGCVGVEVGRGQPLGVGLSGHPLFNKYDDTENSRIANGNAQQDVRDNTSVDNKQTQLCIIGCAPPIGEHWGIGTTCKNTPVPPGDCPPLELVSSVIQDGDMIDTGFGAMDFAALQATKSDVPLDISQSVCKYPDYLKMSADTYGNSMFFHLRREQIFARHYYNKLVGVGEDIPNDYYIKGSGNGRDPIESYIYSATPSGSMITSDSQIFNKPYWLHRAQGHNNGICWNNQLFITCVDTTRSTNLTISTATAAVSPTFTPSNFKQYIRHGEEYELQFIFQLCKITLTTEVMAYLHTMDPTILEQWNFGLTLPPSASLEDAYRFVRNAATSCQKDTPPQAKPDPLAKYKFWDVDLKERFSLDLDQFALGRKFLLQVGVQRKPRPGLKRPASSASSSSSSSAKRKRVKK

B1: HPV 16 R001 (antibody, V domains shown)
VH: QSVKESEGRLVTPGTPLTLTCTASGFTMSRYHMTWVRQAPGKGLEWIGIIYARNSDTYYANWAKGRFTISKTSTTVDLKITSPTIEDTATYFCARVDSDSSGAFDRLDLWGQGTLVTVSS
VL: DPMLTQTAASVEVAVGGTVTIKCQASQSIGGYLSWYQQKPGQRPKLLIYRASTLASGVPSRFKGSGSGTEYTLTFSGVECADAAAYYCQQGYTSSDINNAFGGGTEVVVK
notes: An HRP-labelled form served as detection antibody in the sandwich ELISA; also called HPV16.001; 单克隆抗体HPV 16 R001
- binding result (HPV6 VLP): no binding (tested: 10ng/mL)
- binding result (HPV56 VLP [1]): no binding (tested: 10ng/mL)
- binding result (HPV52 VLP): no binding (tested: 10ng/mL)
- binding result (HPV58 VLP): no binding (tested: 10ng/mL)
- OD450-blank (HPV56 VLP [2]): 0.003 OD450
- OD450-blank (HPV51 VLP): 0.001 OD450
